Laboratory results reported in IntAct's records for PubMed 18728196.

B1: Anti-sigma factor RshA (Mycobacterium tuberculosis (strain ATCC 25618 / P9WJ69 (parent)
chain: MSENCGPTDAHADHDDSHGGMGCAEVIAEVWTLLDGECTPETRERLRRHLEACPGCLRHYGLEERIKALIGTKCRGDRAPEGLRERLRLEIRRTTIIRGGP

Variants of: B1
Details: with pstp_myctu pstP

Row | Variant | effect of a mutation on the interaction
1 | MSENCGPTDAHADHDDSHGGMGCAEVIAEVWTLLDGECTPETRERLRRHLEACPGCLRHYGLEERIKALIGTKCRGDRAPEGLRERLRLEIRRATIIRGGP [T94A] | disrupting interaction
